Test results taken from publication PMC9616490.

Legend:
Experiment in all cases: cryo-EM structure
Details in all cases: remark: other sources report otherwise
[1] = target: T1, human Na-K-2Cl cotransporter-1 (hNKCC1), full-length wild type (human), P55011
T1 chain: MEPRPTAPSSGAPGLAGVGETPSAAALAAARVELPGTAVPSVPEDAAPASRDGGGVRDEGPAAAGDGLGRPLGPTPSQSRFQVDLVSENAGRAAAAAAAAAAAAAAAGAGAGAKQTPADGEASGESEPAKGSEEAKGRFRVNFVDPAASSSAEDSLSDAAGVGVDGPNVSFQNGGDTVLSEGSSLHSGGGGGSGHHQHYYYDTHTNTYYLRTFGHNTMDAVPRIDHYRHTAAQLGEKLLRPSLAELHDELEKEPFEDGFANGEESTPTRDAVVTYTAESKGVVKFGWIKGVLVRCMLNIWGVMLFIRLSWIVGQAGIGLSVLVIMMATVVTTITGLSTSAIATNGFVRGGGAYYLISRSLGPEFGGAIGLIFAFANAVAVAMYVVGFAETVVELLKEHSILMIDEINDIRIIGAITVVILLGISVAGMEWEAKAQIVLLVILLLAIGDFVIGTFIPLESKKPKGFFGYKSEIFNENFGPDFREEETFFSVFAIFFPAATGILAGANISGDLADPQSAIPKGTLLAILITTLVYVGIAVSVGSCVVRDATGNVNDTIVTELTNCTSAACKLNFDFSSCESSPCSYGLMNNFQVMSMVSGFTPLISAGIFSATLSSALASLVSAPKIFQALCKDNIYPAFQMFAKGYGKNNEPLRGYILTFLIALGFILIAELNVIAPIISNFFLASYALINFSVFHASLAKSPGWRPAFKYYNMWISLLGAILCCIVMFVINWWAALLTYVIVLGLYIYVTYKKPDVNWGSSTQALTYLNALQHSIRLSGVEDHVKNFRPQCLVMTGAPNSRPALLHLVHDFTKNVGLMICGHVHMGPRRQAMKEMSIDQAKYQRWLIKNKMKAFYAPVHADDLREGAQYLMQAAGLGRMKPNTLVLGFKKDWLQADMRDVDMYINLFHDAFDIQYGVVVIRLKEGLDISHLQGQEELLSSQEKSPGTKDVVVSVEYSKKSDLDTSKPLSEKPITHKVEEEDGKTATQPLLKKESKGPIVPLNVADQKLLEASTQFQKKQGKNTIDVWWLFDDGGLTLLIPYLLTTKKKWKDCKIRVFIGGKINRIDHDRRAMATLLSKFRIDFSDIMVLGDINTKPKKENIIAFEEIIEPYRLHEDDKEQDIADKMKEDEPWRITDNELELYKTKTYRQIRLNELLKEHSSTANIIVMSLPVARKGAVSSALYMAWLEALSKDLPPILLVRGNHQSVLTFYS

[2] = target: T1, human Na-K-2Cl cotransporter-1 …
[3] = target: T1, human Na-K-2Cl cotransporter-1 …

- stoichiometry N [1]: 2
- stoichiometry N [2]: 2
- stoichiometry N [3]: 2
B1: human Na-K-2Cl cotransporter-1 (hNKCC1), full-length wild type, P55011 1-1212 (natural protein)
chain: MEPRPTAPSSGAPGLAGVGETPSAAALAAARVELPGTAVPSVPEDAAPASRDGGGVRDEGPAAAGDGLGRPLGPTPSQSRFQVDLVSENAGRAAAAAAAAAAAAAAAGAGAGAKQTPADGEASGESEPAKGSEEAKGRFRVNFVDPAASSSAEDSLSDAAGVGVDGPNVSFQNGGDTVLSEGSSLHSGGGGGSGHHQHYYYDTHTNTYYLRTFGHNTMDAVPRIDHYRHTAAQLGEKLLRPSLAELHDELEKEPFEDGFANGEESTPTRDAVVTYTAESKGVVKFGWIKGVLVRCMLNIWGVMLFIRLSWIVGQAGIGLSVLVIMMATVVTTITGLSTSAIATNGFVRGGGAYYLISRSLGPEFGGAIGLIFAFANAVAVAMYVVGFAETVVELLKEHSILMIDEINDIRIIGAITVVILLGISVAGMEWEAKAQIVLLVILLLAIGDFVIGTFIPLESKKPKGFFGYKSEIFNENFGPDFREEETFFSVFAIFFPAATGILAGANISGDLADPQSAIPKGTLLAILITTLVYVGIAVSVGSCVVRDATGNVNDTIVTELTNCTSAACKLNFDFSSCESSPCSYGLMNNFQVMSMVSGFTPLISAGIFSATLSSALASLVSAPKIFQALCKDNIYPAFQMFAKGYGKNNEPLRGYILTFLIALGFILIAELNVIAPIISNFFLASYALINFSVFHASLAKSPGWRPAFKYYNMWISLLGAILCCIVMFVINWWAALLTYVIVLGLYIYVTYKKPDVNWGSSTQALTYLNALQHSIRLSGVEDHVKNFRPQCLVMTGAPNSRPALLHLVHDFTKNVGLMICGHVHMGPRRQAMKEMSIDQAKYQRWLIKNKMKAFYAPVHADDLREGAQYLMQAAGLGRMKPNTLVLGFKKDWLQADMRDVDMYINLFHDAFDIQYGVVVIRLKEGLDISHLQGQEELLSSQEKSPGTKDVVVSVEYSKKSDLDTSKPLSEKPITHKVEEEDGKTATQPLLKKESKGPIVPLNVADQKLLEASTQFQKKQGKNTIDVWWLFDDGGLTLLIPYLLTTKKKWKDCKIRVFIGGKINRIDHDRRAMATLLSKFRIDFSDIMVLGDINTKPKKENIIAFEEIIEPYRLHEDDKEQDIADKMKEDEPWRITDNELELYKTKTYRQIRLNELLKEHSSTANIIVMSLPVARKGAVSSALYMAWLEALSKDLPPILLVRGNHQSVLTFYS
